Assay results taken from PMC5100581.

Molecular target: His-tagged Gins51 wild type (Thermococcus kodakaraensis)
Experiment: SPR

Kd: 230 nM
Substance: GAN mutant F55A/L57A (enzyme)
